The values below come from patent US12662541B2, “Antibody-drug conjugates against the receptor tyrosine kinase EphA5” (Rutgers, The State University of New Jersey, priority 2021, dated 2026).

The target of data set [1] is T1, EphA5 antigen (Homo sapiens, UniProt P54756).
T1 construct: purchased R and D systems 3036-A5
Description: kd (1/s). The method, then: (§1) Table printed on a drawing sheet, FIG. 19
(§2) Head of the field: kd (1/s)
(§3) The patent's description of the figure: FIG. 19 is a table illustrating the Multi-cycle kinetic parameters of chimeric (VH0/VK0) and humanized variants (tested as purified proteins) binding to EphA5 antigen as determined using the Biacore T200. The relative KD was calculated by dividing the KD of the humanized variant by that of the VH0VK0 (first row) assayed in the same experiment. […]
(§4) Where the first naming reader finds the target: description_of_the_figure: humanized variants (tested as purified proteins) binding to EphA5 antigen as determined using the Biacore T200

The target in data set [2] is T2, rhEphA5 antigen (Homo sapiens, UniProt P54756).
T2 construct: purchased R and D systems 3036-A5
Description: KD (M). The method, then: (§5) Table printed on a drawing sheet, FIG. 13
(§6) Head of the field: KD (M)
(§7) The patent's description of the figure: FIG. 13 is a table illustrating the single cycle kinetic parameters of chimeric (VH0/VK0) and humanized 11C12 variants (tested as cell culture supernatants) binding to rhEphA5 antigen as determined using the Biacore T200. The relative KD was calculated by dividing the KD of the humanized variant by that of the VH0/VK0 (top row) assayed in the same experiment. The variants marked with ‘*’ have KD values that are within two-fold of, or are better than, the chimeric antibody. The chimeric and selected variants marked in ‘#’ were identified as the main leads for purification. […]
(§8) Where the first naming reader finds the target: description_of_the_figure: humanized 11C12 variants (tested as cell culture supernatants) binding to rhEphA5 antigen as determined using the Biacore T200

Data set [3] deals with T1, EphA5 antigen. Briefly: KD (M). The method, then:
as §1, §6, §3, §4

Data set [4] deals with T1, EphA5 antigen. Briefly: ka (1/Ms). Here is the method: as §1
(§9) Head of the field: ka (1/Ms)
as §3, §4

Data set [5] concerns the target T3, H460 cell line stably expressing EphA5 (Homo sapiens, UniProt P54756).
T3 construct: endogenous in cells; host or cells: H460 human lung carcinoma cells (provided by Rutgers)
Briefly: Flow cytometry cell binding, H460 cells. Format: cell-based. Particulars: from 10 μg/ml, four-fold seven point dilution. Here is the method:
(§10) A H460 cell line stably expressing EphA5 (provided by Rutgers) was used, alongside H226 cells as a negative control, to test for antibody binding in a flow cytometry assay. The cell lines were first assessed for target expression using 10 μg/ml of the murine 11C12 provided by Rutgers) and MolgG1 non-binging control (Biolegend, California, US). Goat anti-mouse Alexa Fluor 647 (Thermo Fisher, Loughborough, UK) was used for antibody detection.
(§11) For cell binding assays, both cell lines were resuspended in FACS buffer (PBS+1% BSA+0.1% sodium azide) and seeded in 96 well U bottom plates at 1×105 (100 μl) cells per well. The chimeric and six purified humanized variants were tested in the assay alongside the 11C12 murine positive control, MolgG1 and HulgG1 non-binding controls. Samples were prepared at a starting concentration of 10 μg/ml in FACS buffer and underwent a four-fold seven point serial dilution for testing with H460 cells and a three-fold three point serial dilution for the H226 cells. […] Median fluorescence intensity (MFI) was measured using an Attune N×T Flow Cytometer (Thermo Fisher, Loughborough, UK) and 10,000 gated events were acquired per sample. For data analysis, live cell populations were gated based on the forward and side scatter dot plot allowing the Alexa Fluor 647 MFI values to be measured in the RL1 channel.

In another data set the test system is H226 cells (EphA5−). Briefly: Flow cytometry cell binding, H226 negative control cells. The class given is cell-based, human. Particulars: from 10 μg/ml, three-fold three point dilution. The method, then:
as §10, §11
A general note: In flow cytometry, cells or beads pass a laser one at a time.

Data set [6] addresses T2, rhEphA5 antigen. Description: Multi-cycle kinetic analysis (Biacore T200) of purified antibodies. The class given is binding. Here is the method: In order to assess the binding of the six lead humanized variants to rhEphA5 antigen, multi-cycle kinetic analysis (FIG. 68) was performed on purified material. Kinetic experiments were performed at 25° C. on a Biacore T200 running Biacore T200 Control software V2.0.1 and Evaluation software V3.0 (GE Healthcare, Uppsala, Sweden).
HBS-P+ (GE Healthcare, Uppsala, Sweden), supplemented with 1% BSA w/v (Sigma, Dorset, UK) was used as running buffer as well as for ligand and analyte dilutions. Purified lead antibodies were diluted to 0.5 μg/mL in running buffer and at the start of each cycle, loaded onto Fc2, Fc3 and Fc4 of an anti-human IgG CMS sensor chip (GE Healthcare, Little Chalfont, UK). Antibodies were captured at a flow rate of 10 μl/min to give an immobilization level (RL) of 50 RU. The surface was then allowed to stabilize.
Multi-cycle kinetic data was obtained using recombinant EphA5 as the analytes injected at a flow rate of 30 μl/min to minimize any potential mass transfer effects. A five point, three-fold dilution range from 1.11 nM to 270 nM of EphA5 was prepared in running buffer. For each concentration, the association phases were monitored for 210 seconds and the dissociation phase was measured for 900 seconds. Regeneration of the sensor chip surface was conducted between cycles using two injections of 3 M MgCl2. […]
Target sequence in this assay (P54756 25-573 limits assumed): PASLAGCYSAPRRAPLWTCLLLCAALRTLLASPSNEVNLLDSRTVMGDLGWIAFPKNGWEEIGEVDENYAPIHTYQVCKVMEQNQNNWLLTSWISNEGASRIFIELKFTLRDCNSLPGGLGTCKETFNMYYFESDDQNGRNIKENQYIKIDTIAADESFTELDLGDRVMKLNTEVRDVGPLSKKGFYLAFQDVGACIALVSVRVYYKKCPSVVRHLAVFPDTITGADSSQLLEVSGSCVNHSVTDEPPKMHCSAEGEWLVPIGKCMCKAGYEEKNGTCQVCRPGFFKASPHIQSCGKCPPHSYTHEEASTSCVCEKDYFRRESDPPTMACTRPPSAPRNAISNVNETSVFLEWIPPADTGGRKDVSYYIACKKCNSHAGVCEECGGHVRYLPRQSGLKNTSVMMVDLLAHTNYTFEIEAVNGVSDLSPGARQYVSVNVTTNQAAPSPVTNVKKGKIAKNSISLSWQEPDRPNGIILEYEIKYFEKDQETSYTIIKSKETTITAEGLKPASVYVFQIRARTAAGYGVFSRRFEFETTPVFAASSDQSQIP
A general note: Surface plasmon resonance follows binding to a sensor surface in real time, without labels.

The nature of data set [7]: Thermal ramp stability (UNcle biostability platform, Sypro Orange and SLS). The class given is physicochemical. From the text: Thermal ramp stability experiments (Tm and Tagg) are well established methods for ranking proteins and formulations for stability. A protein's denaturation profile provides information about its thermal stability and represents a structural ‘fingerprint’ for assessing structural and formulation buffer modifications. A widely used measure of the thermal structural stability of a protein is the temperature at which it unfolds from the native state to a denatured state. For many proteins, this unfolding process occurs over a narrow temperature range and the mid-point of this transition is termed ‘melting temperature’ or ‘Tm’. To determine the melting temperature of a protein, UNcle measures the fluorescence of Sypro Orange (which binds to exposed hydrophobic regions of proteins) as the protein undergoes conformational changes.
Samples for each variant were formulated in PBS and Sypro Orange at a final concentration of 1 mg/mL. […] Samples were subjected to a thermal ramp from 25-95° C., with a ramp rate of 0.3° C./minute and excitation at 473 nm. Full emission spectra were collected from 250-720 nm, and the area under the curve between 510-680 nm was used to calculate the inflection points of the transition curves (Tonset and Tm). Monitoring of static light scattering (SLS) at 473 nm allowed the detection of protein aggregation, and Tagg (onset of aggregation) was calculated from the resulting SLS profiles. Thermal stability values determined lie in a broad range from 57.9 to 69.6° C. (Tm1), 55.1 to 65.2° C. (Tonset) and 65.6 to 70.2° C. (Tagg) with the humanized leads generally showing improved profiles when compared to the chimeric antibody. […] All humanized antibodies appear to have a higher Tm1, Tonset and Tagg compared to the chimeric antibody.

Data set [8] addresses T2, rhEphA5 antigen. Description: kd (1/s). The method, then:
as §5, §2, §7, §8

For data set [9], the target named is T2, rhEphA5 antigen. Briefly: ka (1/Ms). Here is the method: as §5, §9, §7, §8

T3 sequence (P54756 25-1037): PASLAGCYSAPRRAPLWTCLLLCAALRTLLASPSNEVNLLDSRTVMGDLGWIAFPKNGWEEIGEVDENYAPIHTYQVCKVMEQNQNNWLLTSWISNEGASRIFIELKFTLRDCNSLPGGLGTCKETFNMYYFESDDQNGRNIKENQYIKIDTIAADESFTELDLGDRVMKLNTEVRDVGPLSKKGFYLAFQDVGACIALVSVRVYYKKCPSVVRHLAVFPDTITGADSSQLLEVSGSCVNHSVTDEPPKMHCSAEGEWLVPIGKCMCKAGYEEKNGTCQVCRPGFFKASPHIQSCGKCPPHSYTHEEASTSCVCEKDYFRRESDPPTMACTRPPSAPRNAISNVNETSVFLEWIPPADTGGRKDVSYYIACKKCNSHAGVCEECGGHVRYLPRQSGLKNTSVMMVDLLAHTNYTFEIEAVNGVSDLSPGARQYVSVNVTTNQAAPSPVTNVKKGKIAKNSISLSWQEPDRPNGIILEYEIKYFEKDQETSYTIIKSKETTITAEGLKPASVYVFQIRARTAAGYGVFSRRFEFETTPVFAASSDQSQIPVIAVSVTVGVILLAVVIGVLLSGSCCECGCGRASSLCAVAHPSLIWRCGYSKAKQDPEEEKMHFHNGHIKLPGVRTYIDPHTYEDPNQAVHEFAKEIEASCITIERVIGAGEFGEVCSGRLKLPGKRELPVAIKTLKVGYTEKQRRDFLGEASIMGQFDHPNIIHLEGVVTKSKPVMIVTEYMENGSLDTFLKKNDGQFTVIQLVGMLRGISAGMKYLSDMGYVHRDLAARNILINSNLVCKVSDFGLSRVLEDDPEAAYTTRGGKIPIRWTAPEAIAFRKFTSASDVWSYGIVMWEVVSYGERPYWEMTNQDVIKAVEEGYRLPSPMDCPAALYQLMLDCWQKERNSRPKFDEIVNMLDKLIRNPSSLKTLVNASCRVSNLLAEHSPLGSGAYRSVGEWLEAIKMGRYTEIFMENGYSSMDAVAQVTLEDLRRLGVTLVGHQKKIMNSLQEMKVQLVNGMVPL

B1: VH3/VK4: humanized anti-EphA5 antibody, VH SEQ ID NO:4, VL SEQ ID NO:12; lead variant (antibody, V domains shown)
VH: EVQLVESGGGLVQPGGSLKLSCAASGFTFSTFGIHWVRQAPGKGLEWVAYISGASTTIYYADTVKGRFTISRDNSKNTLYLQMNSLRSEDTAMYYCARYGTSFPYGLDYWGQGTLVTVSS
VL: DIVMTQSPDSLAVSLGERATINCKSSQSVDYDGDSYMNWYQQKPGKAPKLLIYGASNLESGIPDRFSGSGSGTDFTLTISRLEPEDAASYYCQQSNEDPFTFGQGTKLEIK
In general, Kd refers to the free concentration of one partner at which half of the binding sites on the other are occupied at equilibrium, for simple one-to-one binding. A high value points to weaker binding. Regarding B1, the “kd” value in the data set with EphA5 antigen [1] was found to be 0.00142 s⁻¹. Besides, the Kd with rhEphA5 antigen [2] was 0.956 nM; with EphA5 antigen [3], 1.08 nM. This molecule showed a ka with EphA5 antigen [4] of 1.31e+06 M⁻¹ s⁻¹.

B2: 11C12: anti-human EphA5 monoclonal murine antibody, parental and positive control (antibody, V domains shown)
VH: EVTLKESGGGLVQPGGSRKLSCAASGFTFSTFGIHWVRQAPEKGLEWVAYISGASTTIYYADTVKGRFTISRDNPKNTLFLQMTSLRSEDTAMYYCARYGTSFPYGLDYWGQGTSVTVSS
VL: DIVMTQSPGSLAVSLGQRATISCKASQSVDYDGDSYMNWYQQKPGQPPKLLIYGASNLESGIPARFSGSGSGTDFTLNIHPVEEEDAASYYCQQSNEDPFTFGSGTKLEIK
On to B2, for which the “binding to H460 (EphA5+) cells, MFI dose response” value in [5] is on record as “bound to the positive cell line in a concentration dependent manner”. Also, the “binding to H226 (EphA5 negative) cells” value in the data set on H226 cells (EphA5−) is recorded as “no binding”.

B3: VH0/VK0: chimeric antibody with murine 11C12 variable regions (SEQ ID NO:1, 8) and human IgG1/kappa constant regions (antibody, V domains shown)
VH: EVTLKESGGGLVQPGGSRKLSCAASGFTFSTFGIHWVRQAPEKGLEWVAYISGASTTIYYADTVKGRFTISRDNPKNTLFLQMTSLRSEDTAMYYCARYGTSFPYGLDYWGQGTSVTVSS
VL: DIVMTQSPGSLAVSLGQRATISCKASQSVDYDGDSYMNWYQQKPGQPPKLLIYGASNLESGIPARFSGSGSGTDFTLNIHPVEEEDAASYYCQQSNEDPFTFGSGTKLEIK
modifications: human IgG1/kappa constant regions
In the case of B3, in the data set with rhEphA5 antigen [6] (1:1 model fit), the RMAX came out at 47.8. Further, the “kd” value with rhEphA5 antigen [6] (1:1 model, binding to EphA5) is 0.0015 s⁻¹. Moreover, in [7], the “Average Tm2 (° C.)” value turned out to be 65.83 °C; the “Average Tonset (° C.)” value was 55.1 °C; the “transitions detected in thermal unfolding” value is “two transitions (Tm1 and Tm2)”. Besides, the “Average Tm1 (° C.)” value in data set [7] (1 mg/mL in PBS, ramp 25-95° C.) was 57.9 °C. Besides, in data set [7] (SLS at 473 nm), the “Average Tagg 473 (° C.)” value is 65.6 °C. Further, the “Tm2 (° C.)” value in data set [7] (single replicate) is 65.83 °C. The “kd” value in the data set with rhEphA5 antigen [8] was 0.00153 s⁻¹. The “ka” value in the data set with rhEphA5 antigen [9] was determined as 1.15e-06 M⁻¹ s⁻¹.
